As a reminder, the Kd is the constant that tells how readily two partners part at equilibrium.

Drawing on publication PMC9444907, this text covers Kd for nine substances.

Assay [1] deals with human Rb pocket domain lacking the single internal loop (residues 380-787; Δ582-642) (human) (UniProt P06400). Briefly: ITC. Background: Isothermal titration calorimetry measures the heat released or taken up as one component is titrated into another.
In assay [2] the target is p107ΔL pocket domain (residues 389-972, Δ600-779, Δ888-923) (human). Briefly: ITC.
The target in assay [3] is Rb pocket domain (Homo sapiens) (UniProt P06400). As to conditions: cited from earlier work.
Assay [4] concerns the target p107 pocket domain M865V (human). Kind of assay: ITC.
The target in assay [5] is p107 pocket domain V939M (human). Kind of assay: ITC.
Assay [6] has as its target Rb pocket domain (Homo sapiens) (UniProt P06400). As to conditions: cited from earlier work. This is another data set of the same source.

Where two headings read alike, the source gives them in different places.

In the case of EID1 peptide E176R/E177R, the Kd in assay [1] is 9000 nM; in assay [2], 14000 nM.
As to ARID4A peptide E955R, the Kd in assay [2] came to 2300 nM.
For EID1 peptide G179Y/D181Y, the figures for the Kd in assay [1] and in assay [2] were 170 nM and 250 nM, respectively.
In assay [2], “HDAC1 triple (3X) mutant peptide R413D/A415Y/E417Y” came in with a Kd of 105 nM.
With human EID1 LxCxE motif peptide, the equilibrium dissociation constant (Kd) in assay [1] stood at 6000 nM; in assay [2], 7000 nM.
Take “PRDM2 IxCxE peptide (from UniProt Q13029)”: in assay [3], the Kd is 640 nM.
Take human HDAC1 LxCxE motif peptide: the Kd in assay [2] was more than 10000 nM.
Take human ARID4A LxCxE motif peptide: the Kd is 140 nM in assay [1], 120 nM in assay [4], 330 nM in assay [5] and 1600 nM in assay [2].
In the case of HPV16 E7 peptide (from UniProt P03129), the dissociation constant Kd in assay [6] is 5 nM.
